Patent KR20190140944A

Experiments:
[1] = molecular target: HER2 및 HER3 (ErbB-2 및 ErbB-3 양성 세포 상에 함께 발현) (human) (UniProt P04626); assay: steady-state cell affinity, 125I-labelled IgG on SK-BR-3 cells at 4 C; mean of 3 assays
[2] = molecular target: HER2 및 HER3 (ErbB-2 및 ErbB-3 양성 세포 상에 함께 발현) (human) (UniProt P04626); assay: steady-state cell affinity, 125I-labelled IgG on BT-474 cells at 4 C; mean of 3 assays

PB4188 (bispecific antibody)
Kd [1]: 2 nM
Kd [2]: 3.2 nM
